{"source": "patent US20190041401A1", "about": "“Methods of Treating Subjects having Severe and/or Persistent Asthma” (National Jewish Health, priority 2015, published 2019)", "molecules": {"B1": {"name": "IL-33: interleukin-33 cytokine, given intranasally to mice or added to A549 cells (protein, UniProt Q8BVZ5 1-266, looked up)", "Interleukin-33": "MRPRMKYSNSKISPAKFSSTAGEALVPPCKIRRSQQKTKEFCHVYCMRLRSGLTIRKETSYFRKEPTKRYSLKSGTKHEENFSAYPRDSRKRSLLGSIQAFAASVDTLSIQGTSLLTQSPASLSTYNDQSVSFVLENGCYVINVDDSGKDQEQDQVLLRYYESPCPASQSGDGVDGKKLMVNMSPIKDTDIWLHANDKDYSVELQRGDVSPPEQAFFVLHKKSSDFVSFECKNLPGTYIGVKDNQLALVEEKDESCNNIMFKLSKI"}, "B2": {"name": "IL-4: cytokine purchased from PeproTech, 10 ng/mL on A549 cells (protein, UniProt P05112 25-153, looked up)", "Interleukin-4": "HKCDITLQEIIKTLNSLTEQKTLCTELTVTDIFAASKNTTEKETFCRAATVLRQFYSHHEKDTRCLGATAQQFHRHKQLIRFLKRLDRNLWGLAGLNSCPVKEANQSTLENFLERLKTIMREKYSKCSS"}}, "key": {"[1]": {"test_system": "A549 cells", "assay": "IL-33 autoinduction in A549 cells after cytokine pretreatment", "format": "cell-based, human", "details": "pretreated 24 hours with cytokine, then 72 hours with IL-33 (20 ng/mL)", "method": "(§1) FIGS. 18A-18J show the role of IL-33 in the persistence of asthma. FIG. 18A, A549 cells were cultured in medium alone or with IL-33 ([…]), IL-1b (2 ng/mL), IL-4 (10 ng/mL), IL-13 (20 ng/mL), IL-17 (10 ng/mL), TNF (2 ng/mL), IFN-γ (10 ng/mL), or IFN-γ plus TNF (same concentrations) for 72 hours, and then mRNA was analyzed for IL-33 normalized to glyceraldehyde-3-phosphate dehydrogenase (GAPDH). *P<0.05 and **P<0.01. There were 4 to 8 mice per group. FIGS. 18B-18E show the direct effect of IL-33 on airway hyperreactivity, lung ILCs, and autoinduction. […] IN, Intranasal. […] The change in RL with the 25-mg dose of methacholine is shown (n=5 per group). *P<0.05.\n(§2) Immediately after flexiVent analysis, lung sections were collected in RIPA buffer (50 mmol/L Tris [pH 7.4], 150 mmol/L NaCl, 1 mmol/L EDTA, 1 mmol/L NaF, 1 mmol/L Na3VO4, and 0.1 mmol/L phenylmethylsulfonyl fluoride) containing protease and phosphatase inhibitors and homogenized. […] Cellular RNA was analyzed for mRNA for IL-33 and IL-33R. […] Cellular RNAwas analyzed for mRNA for IL-33. […] Cellular RNA was analyzed for mRNA for IL-33. In a fourth experiment cells were treated for 24 hours with IL-13 (20 ng/mL) and ATP, and the supernatant was collected and analyzed for IL-33 levels by means of ELISA, according to the manufacturer's instructions (R&D systems). […]"}, "[2]": {"test_system": "A549 cells", "assay": "Cytokine induction of IL-33R mRNA in A549 cells", "format": "cell-based, human", "details": "cytokine treatment for 72 hours", "method": "as §1, §2"}, "[3]": {"test_system": "human lung epithelial cell line A549", "assay": "IL-33 mRNA induction in A549 cells (real-time PCR)", "format": "cell-based", "details": "cytokine treatment for 72 hours, normalized to GAPDH", "method": "as §1\nImmediately after flexiVent analysis, lung sections were collected in RIPA buffer (50 mmol/L Tris [pH 7.4], 150 mmol/L NaCl, 1 mmol/L EDTA, 1 mmol/L NaF, 1 mmol/L Na3VO4, and 0.1 mmol/L phenylmethylsulfonyl fluoride) containing protease and phosphatase inhibitors and homogenized. Lysed samples were subjected to 10% SDS-PAGE, transferred to a polyvinylidene difluoride membrane, and then immunoblotted with primary antibodies (IL-33 [R&D Systems], tubulin [H-235], and b-actin [Santa Cruz Biotechnology, Dallas, Tex]). After washing, the membranes were incubated with a horseradish peroxidase-conjugated secondary antibody. After additional washing, the membranes were developed with ECL reagent, as previously described (Gorska et al. 2007). A549 cell culture A549 cells were cultured in RPMI in 10% FBS (HyClone; Thermo Scientific, Waltham, Mass.) and 1% penicillin/streptomycin (Gibco, Carlsbad, Calif.) and maintained at 378C in a humidified 5% CO2 incubator. All cytokines were purchased from PeproTech (Rocky Hill, N.J.). In one experiment cells were treated with medium, IL-1b (2 ng/mL), IL-4 (10 ng/mL), IL-13 (20 ng/mL), IL-17 (10 ng/mL), IL-33 (20 ng/mL), TNF (2 ng/mL), IFN-g (10 ng/mL), and TNF (2 ng/mL) plus IFN-g (10 ng/mL) for 72 hours. Cellular RNA was analyzed for mRNA for IL-33 and IL-33R. In a second experiment cells were pretreated for 24 hours with medium, IL-1b (2 ng/mL), IL-4 (10 ng/mL), IL-13 (20 ng/mL), IL-17 (10 ng/mL), TNF (2 ng/mL), or IFN-g (10 ng/mL) before stimulation for 72 hours with IL-33 (20 ng/mL). Cellular RNAwas analyzed for mRNA for IL-33. In a third experiment cells were treated for 24 hours with DRA (5 μg/mL dust mite, 15 μg/mL ragweed, and 5 μg/mL Aspergillus species). Cellular RNA was analyzed for mRNA for IL-33. In a fourth experiment cells were treated for 24 hours with IL-13 (20 ng/mL) and ATP, and the supernatant was collected and analyzed for IL-33 levels by means of ELISA, according to the manufacturer's instructions (R&D systems). […]"}, "[4]": {"test_system": "MEK^low population", "assay": "Sensitivity of MEK^low CD4 population to dexamethasone-induced cell death", "format": "cell-based, human", "details": "BAL CD4 T cells, MEK^low (MFI 10)", "source_text": "FIGS. 5A-5H show the preferential expression of dual-positive TH2/TH17 cells in the BAL MEK^high CD4 T-cell population. FIGS. 5A and 5B, show the sensitivity of MEK^high and MEK^low CD4 populations to dexamethasone-induced cell death. Data are presented as percentages and absolute cell counts (in parentheses) per boxed area. […] FIGS. 5E and 5F show expression of dual-positive TH2/TH17 cells in MEK^high and MEK^low BAL CD4 T-cell populations. FIGS. 5G and 5H show the comparison of expression of dual-positive IL-4/IL-17 (FIG. 5G) and pSTAT3/pSTAT6 (FIG. 5H) cells in MEK^high and MEK^low cell populations.\nPatients were allowed to continue their routine medication. Bronchoscopy and BAL were performed, as described previously (Good J T Jr, et al. Refractory asthma: importance of bronchoscopy to identify phenotypes and direct therapy. Chest 2012; 141:599-606). BAL fluid was processed immediately. Cells were isolated by means of centrifugation. Supernatant fluid was placed into aliquots in small samples and frozen. Cells were either cultured or fixed immediately in 4% paraformaldehyde and processed for flow cytometry. […]\nCells were stained with the following antibodies. […] This was detected with an Alexa Fluor 488-labeled anti-rabbit secondary antibody. […] Flow cytometric data were analyzed with FlowJo software (Tree Star, Ashland, Ore). […]"}, "[5]": {"test_system": "C57Bl/6 mice", "assay": "Intranasal IL-33 administration, outcomes after 15 days", "format": "in vivo, mouse", "method": "as §1\nFIG. 27A, Effect of IL-13 on IL-33 secretion. A549 cells were treated overnight with medium or IL-13 (20 ng/mL) and ATP ([…]), and the released IL-33 was measured by using ELISA (n=6). *P=0.04. FIGS. 27B-27E, Direct effect of IL-33 on airway hyperreactivity and lung ILCs. C57Bl/6 mice were treated intranasally for 3 consecutive days with 400 ng per dose of IL-33. Outcome measures were evaluated 15 days after final exposure.\nMeasurement methodologies have been explained in depth in Goplen et al. (Goplen N, et al. Combined sensitization of mice to extracts of dust mite, ragweed, and Aspergillus species breaks through tolerance and establishes chronic features of asthma. J Allergy Clin Immunol 2009; 123:925-32.e11). Briefly, mice were anesthetized with ketamine (180 mg/kg), xylazine (9 mg/kg), and acepromazine (4 mg/kg). After loss of footpad pinch reflex, a tracheotomy was performed, and the mouse was attached with an 18-gauge cannula to a small-animal ventilator with a computer-controlled piston (FlexiVent; SCIREQ, Montreal, Quebec, Canada). Mice were ventilated at a frequency of 90 breaths/min with a tidal volume of 20 mL/kg during nebulization and otherwise with a frequency of 150 breaths/min with a tidal volume of 20 mL/kg while breathing against an artificial positive endexpiratory pressure of 2.5 to 3 cm H2O. Lungs were inflated to total lung capacity twice to standardize volume history. Resistance measurements were then taken to establish baselines for total lung resistance and at each methacholine dose. Group averages were expressed as fold increases in baseline resistance (means+SEMs).\nInflammation was quantified by using Metamorph image acquisition and analysis software on H&E-stained lung sections at 20× magnification, as described in Goplen et al. 2009. Airway epithelial hypertrophy and peribronchial smoothmuscle hypertrophyweremeasured as the area of epithelial or smoothmuscle per circumference of airway basement membrane. Airway inflammation was measured as the area of inflammatory infiltrates as a percentage of the total field. A minimum of 5 airways per mouse and 5 to 9 mice per group were quantified. Images were acquired on a Nikon Eclipse TE2000-U microscope by using 320 dry lenses at room temperature through a Diagnostics Instruments camera model #4.2 with Spot software 5.0 (Diagnostic Instruments, Inc, Sterling Heights, Mich.). H&E sections were mounted with Permount medium (Thermo Fisher Scientific, Inc, Waltham, Mass.). Images were adjusted for brightness and contrast to improve viewing.\nLungs were perfused with saline, and single-cell suspensions of lung cells were acquired by using mechanical mincing of lungs followed by digestion at 37° C. for 45 minutes in RPMI with 10% FBS, 1% penicillin/streptomycin, and collagenaseA (1 mg/mL). Cell suspensions were agitated at room temperature for 10 minutes in RPMI with 100 U/mL DNAse I before filtration through 40-mm filters and red blood cell lysis. Single-cell suspensions were subsequently fixed in 4% paraformaldehyde for flow cytometric analysis.\nMouse ILC2s. For mouse flow cytometric staining, all conjugate antibodies were purchased from BioLegend (San Diego, Calif.), unless otherwise stated. Mouse lung digest cells were fixed with 4% paraformaldehyde and incubated with 10% donkey serum and 1% 2.4G2. […]"}, "[6]": {"details": "intranasal, 400 ng per dose for 3 days, 15 days after"}, "[7]": {"details": "intranasal, 3 consecutive days, 400 ng per dose, 15 days after"}}}
{"molecule": "IL-113: probably IL-1b cytokine (PeproTech, 2 ng/mL on A549 cells), misprinted", "values": [{"measurement": "IL-33 autoinduction after preincubation with cytokine", "setting": "[1]", "result": "unable to facilitate IL-33 autoinduction"}, {"measurement": "induction of IL-33R mRNA", "setting": "[2]", "result": "strong inducer of IL-33R"}]}
{"molecule": "IL-17: cytokine purchased from PeproTech, 10 ng/mL on A549 cells", "values": [{"measurement": "induction of IL-33 mRNA", "setting": "[3]", "result": "directly induced IL-33"}]}
{"molecule": "C[C@@H]1C[C@H]2[C@@H]3CCC4=CC(=O)C=C[C@]4(C)[C@@]3(F)[C@@H](O)C[C@]2(C)[C@@]1(O)C(=O)CO", "note": "[Dexamethasone, dexamethasone]", "values": [{"measurement": "cell count decrease after dexamethasone treatment, MEK^low CD4 T cells", "setting": "[4]", "result": 2.7, "unit": "fold"}]}
{"molecule": "B1", "values": [{"measurement": "persistence of airway hyperreactivity and airway inflammation", "setting": "[5]; after intranasal IL-33, 400 ng per dose for 3 days", "result": 2, "unit": "weeks"}, {"measurement": "IL-51 ILC2 numbers", "setting": "[5]; [6]", "result": "increased"}, {"measurement": "number of lung IL-131 ILC2s", "setting": "[5]; [6]", "result": "increased"}, {"measurement": "total number of IL-51 and IL-131 lung cells", "setting": "[5]; [6]", "result": "increased"}, {"measurement": "airway hyperreactivity", "setting": "[5]; [7]", "result": "induced airway hyperreactivity"}, {"measurement": "airway inflammation", "setting": "[5]; [7]", "result": "mild airway inflammation"}, {"measurement": "IL-33 production (autoinduction) in lung cells", "setting": "[5]; pro-surfactant protein C-positive epithelial cells and CD11b+ hematopoietic cells, 2 weeks after intranasal IL-33", "result": "persistent IL-33 production was observed"}, {"measurement": "induction of IL-33 mRNA", "setting": "[3]", "result": "capable of autoinduction"}]}
{"molecule": "B2", "values": [{"measurement": "induction of IL-33 mRNA", "setting": "[3]", "result": "directly induced IL-33"}]}
